{
  "source": "paper PMC10204179",
  "target": "protein G_1",
  "assay": "SEC-MALS",
  "data": [
    {"substance": "protein G_1", "values": [
      {"measurement": "stoichiometry N", "value": 2}
    ]}
  ]
}
